Where no end group is shown, it is not given here.

The source of these data is US7851592B2, “Compositions and methods for inhibiting G2 cell cycle arrest and sensitizing cells to DNA damaging agents” (CanBas Co. Ltd., priority 1999, dated 2010).

Data set [1] has as its system histone H1 kinase activity. Kind of data set: Histone H1 kinase assay on lysates of treated Jurkat cells. The format is cell-based, human. To be noted: FIG. 2B; bleomycin 10 μg/ml or hydroxyurea 100 μg/ml; 6 hr. As to the method: Histone H1 kinase assay. Ten million Jurkat cells were treated with hydroxyurea (100 μg/ml), bleomycin (10 μg/ml), or colchicine (5 μg/ml) with or without addition of TAT-S216A, TAT-S216 or TAT-Control (10 μM) for 6 hr. The cells were washed in cold PBS and lysed at 4° C. in 1 ml of buffer A (50 mM Tris pH 8, 2 mM DTT, 5 mM EDTA, 100 mM NaCl, 0.5% NP40, 20 mM Na3V04, 50 mM NaF, 4 μM Okadaic acid, 5 μg/ml aprotinin, 5 μg/ml pepstatin A and 5 μg/ml leupeptin.). Twenty microliter of p13^suc1 agarose beads (Upstate Biotechnology., Saranac, N.Y.) were added to the cleared lysates, incubated for 4 hr at 4° C., and washed five times with buffer A without 5 mM EDTA, 20 mM Na3V04, 50 mM NaF, 4 μM Okadaic acid. Histone HI kinase activity on the beads were analyzed by using Cdc2 kinase assay kit (Upstate Biotechnology) with [γ-^32P] ATP, followed by 12% SDS-PAGE electrophoresis, and autoradiographed to detect the phosphorylated Histone H1.
(§1) The cell cycle status of the cells treated with TAT-S216A or TAT-S216 upon the DNA damage-induced G2 arrest was analyzed by FACS analysis. Histone H1 kinase activities of theses cells were simultaneously monitored. […] Results are shown in FIG. 2: abrogation of DNA damage-induced G2 arrest by TAT-S216A and TAT-S216 peptides. FIG. 2A, FACS analysis of Jurkat cells treated with bleomycin and peptides. Cells were treated with bleomycin (10 μg/ml) with or without peptides (10 μM) for 20 hr. B, histone H1 kinase analysis. Cell lysates were prepared from the cells treated with the indicated reagent for 6 hr. Concentrations used were: hydroxyurea (HU), 100 μg/ml; bleomycin (Bleo), 10 μg/ml; colchicine, 5 μg/ml; TAT-S216A and TAT-S216, 10 μM. C, FACS analysis of colchicine -and peptide-treated cells. Jurkat cells were treated with colchicine (5 μg/ml) with or without peptide (10 μM) for 20 hr.

For data set [2], the system named is Jurkat cells. Kind of data set: Trypan blue dye exclusion analysis of Jurkat cells treated with bleomycin or colchicine with or without peptides. It counts as cell-based. To be noted: for effect on cytotoxicity by colchicine: FIG. 3B, colchicine 5 μg/ml, peptide 10 μM. As to the method: (§2) The effect of TAT-S216A and TAT-S216 on the cell death induced by bleomycin was examined. The results are shown in FIG. 3; Trypan blue dye exclusion analysis of Jurkat cells treated with bleomycin (A) or colchicine (B) with or without indicated peptides. Bars, SD Vertical axis, % viability of the cells; Bleo 5, bleomycin 5 μg/ml; Bleo 10, bleomycin 10 μg/ml; colchicine, 5 μg/ml; TAT-S216 or TAT-S216A, 10 μM of indicated peptide. […] C, survival analysis of PHA blasts treated with bleomycin and peptides. Vertical axis, % viability of the cells determined by trypan blue dye exclusion analysis; horizontal axis, time in hours. Bleo 5, bleomycin 5 μg/ml; Bleo 10, bleomycin 10 μg/ml; TAT-S216 or TAT-S216A, 10 μM of indicated peptide. D, FACS analysis of the cells treated with bleomycin and peptides. PHA-blasts were treated with bleomycin with or without peptides for 20 hr. Vertical axis, cell number; horizontal axis, DNA content indicated by propidium iodide staining.

Data set [3] deals with PHA blasts (mitogen-activated normal human T lymphocytes). The data set is described as follows: Trypan blue dye exclusion survival analysis of PHA blasts treated with bleomycin and peptides. The format is cell-based. To be noted: FIG. 3C; bleomycin 5 and 10 μg/ml; peptide 10 μM. As to the method:
Cell culture and plasmids. A human T-cell leukemia-derived cell line, Jurkat, was cultured in RPMI 1640 (Sigma) supplemented with 10% fetal calf serum. (IBL: Immuno-Biological Laboratories, Gunma, Japan) at 37° C./5% CO2. Human pancreatic epitheloid carcinoma-derived cell lines, MIA PaCa2 and PANC1, were cultured in Eagle's MEM (IWAKI, Chiba, Japan) and Dulbecco's modified Eagle's medium with 4 mM […] (Sigma) and 1.0 mM sodium pyruvate (Life Technologies, Inc., Grand Island, N.Y.), respectively, and supplemented with 10% fetal calf serum at 37° C./5% CO2. Normal human peripheral blood lymphocytes were collected by Ficoll-Paque (Amersham Pharmacia Biotech) density gradient. Two million cells/ml were cultured in RPMI 1640 supplemented with 10% fetal calf serum at 37° C./5% CO2 in the presence of 5 μg/ml PHA (Life Technologies, Inc.) for a week. Baculovirus lysates that include HA-tagged hChk1 (SEQ ID NO:3) or c-myc-tagged Chk2/HuCds1 (SEQ ID NO:4) and plasmid for GST-Cdc25C (amino, acid 200-256) were made as described in Matsuoka (1998) Science 282:1893-1897, and provided by Dr. Makoto Nakanishi (Department of Biochemistry, Nagoya City University.
The effect of TAT-S216A and TAT-S216 on the cell death induced by bleomycin was examined. […] Vertical axis, % viability of the cells determined by trypan blue dye exclusion analysis; horizontal axis, time in hours. […]

Data set [4] has the same test system. Kind of data set: FACS analysis of PHA blasts treated with bleomycin and peptides. The format is cell-based. To be noted: FIG. 3D; for cell cycle pattern of PHA blasts, peptide in addition to bleomycin: 20 hr. Here is the method:
(§3) Cell-cycle analysis. The cell cycle status of the cells treated with peptides and/or bleomycin or colchicine was analyzed by FACS, as described by Kawabe (1997) Nature 385:454-458. In brief, two million Jurkat cells were re-suspended and incubated in 300 μl Krishan's solution (0.1% Sodium citrate, 50 μg/ml PI, 20 μg/ml RNase A and 0.5% NP-40; see supra) for 1 hr at 4° C. and analyzed by FACScan™ (Beckton Dickinson, Mountain View, Calif.) with the program CELLQuest™ (Beckton Dickinson).
as §2
In order to confirm the specificity of the effect of these peptides on cancer cells in which the G1 checkpoint is abrogated; the effect of these peptides on normal human cells was investigated. Mitogen-activated normal human T lymphocytes (PHA blasts) were prepared by stimulating peripheral blood mononuclear cells obtained from a healthy donor with PHA for 1 week. These cells were treated with bleomycin (5 and 10 μg/ml) in the presence or absence of either TAT-S216A or TAT-S216.
(A flow cytometer gives signals particle by particle.)

Data set [5] relates to Jurkat cells. The data set is described as follows: Cell-cycle analysis by FACS, DNA damage-induced G2 arrest. To be noted: bleomycin 10 μg/ml. It counts as cell-based, human. Here is the method:
as §3, §1

The target of data set [6] is human Chk2 kinase (Homo sapiens, UniProt O96017). Kind of data set: In vitro phosphorylation (kination) of membrane-immobilized peptides by human Chk2 kinase (Gst-Chk2). The format is biochemical. Also on record: key to phosphorylation signal by human Chk2 kinase (graded) / in vitro phosphorylation by human Chk2 kinase (graded signal): a “+++” indicates the peptide was relatively highly phosphorylated; a “++” indicates the peptide was relatively less phosphorylated; a “+” indicates the peptide was detectably significantly phosphorylated over negative control; no indication indicates that a peptide was not significantly phosphorylated over negative control. To be noted: for phosphorylation signal by human Chk2 kinase (graded) / in vitro phosphorylation by human Chk2 kinase (graded signal): γ-33P-ATP, RT 1 hr; for in vitro phosphorylation by human Chk2 kinase (graded signal): image analyzer signal graded −. As to the method:
Exemplary peptides were directly synthesized (immobilized) on a membrane and contacted with human Chk2 kinase. Specifically, oligo-peptides with all sequences predicted by the 3-dimensional model were directly synthesized on a membrane by using an auto-spot-peptide-synthesizer, Model ASP-22 2 (ABiMED, Germany). The amount of peptide was about 0.1 micro-mol/cm^2.
The membrane was incubated with 2% Gly-Gly in PBS for 2 hours (hr) at room temperature (RT). Then, they were washed three times with 0.1% Tween-P BS™. The “kination,” or “phosphorylation,” reaction was performed with a recombinant fusion protein Gst-Chk2 at a concentration of about 5 μg in 4 ml reaction buffer, 1 mM MgCl2, 2% Gly-Gly and γ-^33P-ATP in PBS at RT for 1 hr. After the reaction, the membrane was washed 5 times with RIPA (1% SDS, 1% NP-40, 100 mM NaCl) and analyzed with a Bass 2500™ image analyzer (Fuji, Japan).
The following Table 1 is a complete list of tested peptides and results of the in vitro phosphorylation by human Chk2 kinase assay.
The following example describes studies which identified exemplary G2 checkpoint-abrogating peptides of the invention. The following peptides of the invention were synthesized directly on membranes and tested in in vitro phosphorylation (“kination” assays, as described above.
These peptides were tested in in vitro kination reactions. The oligopeptides were used as phosphorylation substrates; added kinases are involved in the cell cycle G2 checkpoint. Thus, a substance that inhibits the kination reaction can be a cell cycle 62 checkpoint abrogator. For the detection of the phosphorylation status of substrates in this screening method, isotope-labeled ATP and anti-phospho-peptides antibody can be used.

The mark [7] stands for this setting: peptide synthesized on membrane (about 0.1 micro-mol/cm^2), Gst-Chk2 about 5 μg in 4 ml reaction buffer.
Where [8] appears, read: peptide synthesized on membrane, about 0.1 micro-mol/cm^2, Gst-Chk2 about 5 μg in 4 ml.

Chain of human Chk2 kinase (O96017 whole entry): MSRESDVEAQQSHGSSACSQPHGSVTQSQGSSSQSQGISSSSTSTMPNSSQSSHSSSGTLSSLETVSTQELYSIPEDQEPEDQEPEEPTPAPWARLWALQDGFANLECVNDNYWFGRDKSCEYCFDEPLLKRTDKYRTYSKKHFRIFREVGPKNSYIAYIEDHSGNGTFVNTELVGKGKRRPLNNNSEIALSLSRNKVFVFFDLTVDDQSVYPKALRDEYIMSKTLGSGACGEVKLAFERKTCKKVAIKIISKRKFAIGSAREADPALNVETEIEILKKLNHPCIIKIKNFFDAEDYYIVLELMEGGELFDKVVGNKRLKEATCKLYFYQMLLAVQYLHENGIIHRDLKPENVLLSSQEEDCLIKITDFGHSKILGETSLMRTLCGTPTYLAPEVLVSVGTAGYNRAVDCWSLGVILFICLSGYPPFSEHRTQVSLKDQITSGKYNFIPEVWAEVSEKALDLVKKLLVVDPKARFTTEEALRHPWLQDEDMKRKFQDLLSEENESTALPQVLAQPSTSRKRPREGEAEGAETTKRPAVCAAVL

With `NC(=O)NO` [hydroxyurea, Hydroxyurea], the “histone H1 kinase activity on treatment with drug alone” value in data set [1] is “decreased”. As to YGRKKRRQRRRLYRSPSMPENL [TAT-S216], the “effect on cytotoxicity by colchicine” value in data set [2] is “did not affect the cytotoxicity by colchicine”. In addition, in data set [3], the “effect on cytotoxicity of bleomycin to normal cells (PHA blasts)” value is “did not increase the cytotoxicity of bleomycin to normal cells”. Also, the “cell cycle pattern of PHA blasts, peptide in addition to bleomycin” value in data set [4] is reported as “no further alteration of cell cycle pattern was observed”.

As for YGRKKRRQRRRLYRSPAMPENL [TAT-S216A], the “effect on cytotoxicity by colchicine” value in data set [2] is “did not affect the cytotoxicity by colchicine”. Further, the “effect on cytotoxicity of bleomycin to normal cells (PHA blasts)” value in data set [3] is recorded as “did not increase the cytotoxicity of bleomycin to normal cells”. Also, in data set [4], the “cell cycle pattern of PHA blasts, peptide in addition to bleomycin” value is recorded as “no further alteration of cell cycle pattern was observed”. As to Bleomycin [reference compound], the “cell cycle arrest of Jurkat cells by bleomycin alone” value in data set [5] is listed as “arrested exclusively at G2”. The “histone H1 kinase activity on treatment with drug alone” value in data set [1] is “decreased”. The “Jurkat cells killed, bleomycin alone” value in data set [2] (FIG. 3A, bleomycin at 5 or μ10 g/ml) was 27-30%. In data set [4] (bleomycin 5 μg/ml), the “cell cycle arrest of PHA blasts by bleomycin alone” value was “arrested at G1 and S phase but not G2”. Turning to LYRSPSAMPENL, in data set [6] (peptide on membrane, Gst-Chk2), the “phosphorylation signal by human Chk2 kinase (graded)” value was “+”. Take LYTSPSNWENL: in data set [6] (setting [7]), the “in vitro phosphorylation by human Chk2 kinase (graded signal)” value (from here on “in vitro phosphorylation”) is given as “+”.

Consider LYRSPSHWENL, for which, in data set [6] (setting [7]), the “in vitro phosphorylation” value is on record as “+”. Same read-out and setting: for LYSSPSHPENL the value was “++”; for LYTSPSHYENL, “+”; for LYTSPSMWENL, “++”. LYTSPSFFENL: the “in vitro phosphorylation” value in data set [6] (setting [7]) is listed as “++”. With RYSLPPELSNM, the “phosphorylation signal by human Chk2 kinase (graded)” value in data set [6] (peptide on membrane, Gst-Chk2) is recorded as “+”. Moreover, the “in vitro phosphorylation” value in data set [6] (setting [7]) is recorded as “+”. Regarding W Y T S P S Y F E N L (WYTSPSYFENL), the “phosphorylation by human Chk2 kinase (in words)” value in data set [6] (peptide on membrane, Gst-Chk2) was “best phosphorylation substrates”. Regarding LYRSPSYFENL, the “in vitro phosphorylation” value in data set [6] (setting [7]) is “+”. LYSSPSYYENL: in data set [6] (setting [7]), the “in vitro phosphorylation” value is recorded as “+”. Still for that read-out and setting: for LYTSPSFPENL the value was “++”. As for LYSSPSHWENL, the “in vitro phosphorylation” value in data set [6] (setting [7]) is reported as “++”. Regarding 1125 (WYRSPSMWENL) [compound 1125], in data set [6] (setting [8]), the “in vitro phosphorylation” value was “++”. Turning to LYSSPSYFENL, in data set [6] (setting [7]), the “in vitro phosphorylation” value is listed as “+”. For LYSSPSFPENL, the “in vitro phosphorylation” value in data set [6] (setting [7]) was “+”. The same measure, in the same setting: for LYTSPSYPENL the value was “++”. With 1128 (WYRSPSFFENL) [compound 1128], the “in vitro phosphorylation” value in data set [6] (setting [8]) was “++”. Consider LYTSPSFYENL, for which, in data set [6] (setting [7]), the “in vitro phosphorylation” value was “++”. Same read-out and setting: to LYTSPSNYENL belongs “+”; to LYTSPSHWENL, “+”; to LYTSPSHFENL, “+”. Take LYRSPSHYENL: in data set [6] (setting [7]), the “in vitro phosphorylation” value is “+”.
